Positions count from the first letter of the chain named. Blank lines part the entries; values can stand above or below the binder they belong to.
Assays:
[1] = biological target: T1, human TLR4/MD-2 receptor complex expressed on transfected cells (human, UniProt O00206 24-839; Q9Y6Y9 19-160); assay: flow cytometry, mock transfected vs TLR4/MD-2 transfected cells
T1 construct: Tags differ by cell line: CHO-K1: N-terminal c-myc on TLR4, C-terminal c-Myc and Protein C on MD-2; also called TLR4/MD-2 complex; hTLR4/MD-2
Target sequence in this assay (O00206 24-839 limits assumed, chain 1 of 2, one chain of several): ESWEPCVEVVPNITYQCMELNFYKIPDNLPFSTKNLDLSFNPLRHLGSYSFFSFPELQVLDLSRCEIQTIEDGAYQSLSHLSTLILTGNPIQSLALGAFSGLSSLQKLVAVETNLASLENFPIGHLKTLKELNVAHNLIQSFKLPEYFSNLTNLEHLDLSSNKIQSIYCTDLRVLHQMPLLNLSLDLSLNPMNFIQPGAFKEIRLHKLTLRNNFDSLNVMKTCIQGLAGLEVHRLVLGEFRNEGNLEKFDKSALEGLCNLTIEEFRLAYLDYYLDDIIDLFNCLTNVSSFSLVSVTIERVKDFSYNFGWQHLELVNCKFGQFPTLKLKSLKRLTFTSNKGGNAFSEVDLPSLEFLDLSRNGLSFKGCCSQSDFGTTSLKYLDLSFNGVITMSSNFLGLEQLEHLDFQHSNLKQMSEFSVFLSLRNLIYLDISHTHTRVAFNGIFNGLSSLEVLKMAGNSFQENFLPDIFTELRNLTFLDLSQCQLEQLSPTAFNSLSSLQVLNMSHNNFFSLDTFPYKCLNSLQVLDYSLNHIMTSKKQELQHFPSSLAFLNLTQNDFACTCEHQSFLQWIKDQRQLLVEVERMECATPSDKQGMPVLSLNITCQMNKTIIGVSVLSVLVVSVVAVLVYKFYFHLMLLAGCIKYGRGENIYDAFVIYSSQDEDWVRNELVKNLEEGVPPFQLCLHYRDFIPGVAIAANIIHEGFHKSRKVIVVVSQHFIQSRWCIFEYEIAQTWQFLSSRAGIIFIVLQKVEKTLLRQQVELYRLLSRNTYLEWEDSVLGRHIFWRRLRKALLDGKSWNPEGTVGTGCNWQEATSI

[2] = biological target: T2, human MD-2 expressed in transfected HEK 293 cells (human, UniProt Q9Y6Y9 19-160); assay: sandwich ELISA, capture on anti-FLAG M2, biotinylated mu18H10
T2 construct: also called MD-2 alone; wt MD-2
T2 chain: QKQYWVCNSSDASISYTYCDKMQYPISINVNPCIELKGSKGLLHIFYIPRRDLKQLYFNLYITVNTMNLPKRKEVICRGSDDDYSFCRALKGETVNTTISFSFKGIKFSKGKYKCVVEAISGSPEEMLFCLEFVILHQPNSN
Protocol: For sample preparation, HEK 293 cells were transfected with the appropriate plasmid constructs using the Fugene 6™ transfection reagent as described in paragraph G above. 48 hours post-transfection, cells were collected and cleared by centrifugation. Cells were subsequently incubated with biotinylated mu18H10 (10 μg/ml) and lysed in 20 mM Tris pH 7.4, 150 mM NaCl, 1% NP40 containing COMPLETE™ protease inhibitors (Roche).
To perform the sandwich ELISA, Nunc maxisorp plate wells were coated with 50 μl of the anti-FLAG™ M2 MAb (Sigma) at a concentration of 5 μg/ml in PBS. Wells were blocked with 200 μl PBS 2% BSA and subsequently incubated with 50 μl of the appropriate samples at the indicated dilution. Wells were washed three times with 200 μl PBS 0.05% Tween 20 and incubated with 50 μl of the appropriate antibody (10 μg/ml for biotinylated mu18H10 and 12D4, 1 μg/ml for the polyclonal […]). Following a wash step as above, wells were incubated with 50 μl of the appropriate detection antibody (HRP conjugated streptavidin at a dilution of 1:1500 for the biotinylated MAbs and HRP conjugated anti-rabbit IgG (H+L) at a dilution of 1:5000 for the polyclonal rabbit Ab). […] Plates were read at a wavelength of 650 nm.

[3] = biological target: T3, recombinant soluble MD-2 purified from baculovirus-infected insect cell supernatants (Homo sapiens (Human), UniProt Q9Y6Y9 19-160); assay: direct ELISA, MD-2 coated at 5 µg/ml
T3 construct: not shown: C-terminal FLAG and 6xHIS tags
T3 chain: T2 chain
Protocol: Recombinant soluble MD-2 with C terminal FLAG and histidine epitope tags was coated at a concentration of 5 μg/ml in 50 μl PBS on ELISA plates (Nunc Maxisorp). Wells were blocked with 200 μl PBS 2% BSA and subsequently incubated with the appropriate MAb at the indicated concentration in PBS 1% BSA. Following 3 wash steps with PBS 0.05% Tween 20, 50 μl HRP conjugated goat anti-mouse IgG (H+L) at a 1:5000 dilution was added to the wells. […] Plates were read at a wavelength of 650 nm.
Using direct ELISA, no binding of mu18H10 to recombinant soluble MD-2 generated with the baculovirus expression system was detected (FIG. 5a).

[4] = biological target: T1, human TLR4/MD-2 receptor complex …; assay: flow cytometry, TLR4/MD-2 transfected CHO cells
Protocol: FIG. 41 is a graph depicting that the hu15C1 humanized antibody that includes VH 4-28 shown in SEQ ID NO:45 (“15C1 4-28/A26”) and variants thereof in which residues at chosen positions have been replaced by the corresponding amino acid in the given human germline (“15C1 4-28° C.30/A26”; “15C1 4-28° C.48/A26”; “15C1 4-28° C.67/A26” and “15C1 4-28° C.69/A26”, see TABLE 1) are capable of binding specifically to the human TLR4/MD-2 complex on the surface of transfected CHO cells. MAb binding to the TLR4/MD-2 transfected CHO cells is shown by flow cytometry using the hu15C1 antibodies or the chimeric 15C1 (“15C1 CHIM”) (described above) at the concentrations indicated. Binding is measured as a cellular Mean Fluorescence Intensity (MFI) value.

binding result [1]: binds | binding result [2]: no binding (tested: 10 µg/ml) | binding result [3]: no binding
B1: mu18H10 murine monoclonal antibody (antibody, mouse IgG2b, V domains shown)
VH: QVQLQQSGADLVRPGALVKLSCTASGFNIKDSYIHWVKKRPEWGLEWIGWTDPENVNSIYDPRFQGKASITADTSSNTAFLQLTSLTSEDTAVYYCARGYNGVYYAMDYWGQGTTVTVSS
VL: QIVLTQSPSIMSASLGEEITLTCSASSSVIYMHWYQQKSGTSPKLLIYRTYNLASGVPSRFSGSGSGTFYSLTISSVEAEDAADYYCHQWSSFPYTFGGGTKLEIKR

binding result [4]: binds
B2: chimeric 18H10 MAb (antibody, V domains shown)
VH: B1 VH
VL: B1 VL
notes: also called 18H10chim; 18H10 chimeric antibody

binding result [1]: binds
B3: mu7E3 murine monoclonal antibody (antibody, mouse IgG1, V domains shown)
VH: QVTLKESGPGILQPSQTLSLTCSFSGFSLTTYNIGVGWIRQPSGKGLEWLAHIWWNDNIYYNTVLKSRLTFSKDTSNNQVFLKIASVDIADTATYYCIRMAEGRYDAMDYWGQGTSVTVSS
VL: AIQMTQSTSSLSASLGDRVTINCRASQDITNYLNWYQQKPDGTVRLLIYYTSKLHSGAPSRFSGRGSGTDYSLTISNLEQEDIATYFCQQGNTFPWTFGGGTKLEIKR

binding result [4]: binds
B4: chimeric 7E3 MAb (antibody, V domains shown)
VH: B3 VH
VL: B3 VL
notes: also called 7E3 CHIM; 7E3 chimeric antibody

binding result [1]: binds
B5: mu15C1 murine monoclonal antibody (antibody, mouse IgG1, V domains shown)
VH: DVQLQESGPDLIQPSQSLSLTCTVTGYSITGGYSWHWIRQFPGNKLEWMGYIHYSGYTDFNPSLKTRISITRDTSKNQFFLQLNSVTTEDTATYYCARKDPSDGFPYWGQGTLVTVSA
VL: DIVMTQSPATLSVTPGDRVSLSCRASQSISDHLHWYQQKSHESPRLLIKYASHAISGIPSRFSGSGSGTDFTLSIKSVEPEDIGVYYCQNGHSFPLTFGAGTKLELKR

binding result [4]: binds
B6: chimeric 15C1 MAb (antibody, V domains shown)
VH: B5 VH
VL: B5 VL
notes: also called 15C1 CHIM; 15C1 chimeric antibody

binding result [1]: binds
B7: mu16G7 murine monoclonal antibody (antibody, mouse IgG1, V domains shown)
VH: QVKLQESGAELMKPGASVKISCKATGYKFSDYWIEWIKQRPGHGLEWIGEILPGSGSTNYNEDFKDKATFTSDTSSNTAYMQLSSLTSEDSAVYYCAKEERAYYFGYWGQGTTVTVSS
VL: DVEMTQTPLSLPVSLGDQASISCRSSQSLENSNGNTYLNWYLQKPGQSPQLLIYRVSNRFSGVLDRFSGSGSGTDFTLKISRVEAEDLGVYFCLQVTHVPPTFGAGTKLELKR

binding result [4]: binds
B8: hu15C1 4-28 QC 30/A26 variant (antibody, V domains shown)
VH: QVQLQESGPGLVKPSDTLSLTCAVSGYSISGGYSWHWIRQPPGKGLEWMGYIHYSGYTDFNPSLKTRITISRDTSKNQFSLKLSSVTAVDTAVYYCARKDPSDGFPYWGQGTLVTVSS
VL: EIVLTQSPDFQSVTPKEKVTITCRASQSISDHLHWYQQKPDQSPKLLIKYASHAISGVPSRFSGSGSGTDFTLTINSLEAEDAATYYCQNGHSFPLTFGGGTKVEIK
notes: also called 15C1 4-28° C.30/A26

binding result [4]: binds
B9: hu15C1 4-28 QC 67/A26 variant (antibody, V domains shown)
VH: B8 VH with S30T, I68V
VL: B8 VL
notes: also called 15C1 4-28° C.67/A26

binding result [4]: binds
B10: hu15C1 4-28 QC 69/A26 variant (antibody, V domains shown)
VH: B8 VH with S30T, I70M
VL: B8 VL
notes: also called 15C1 4-28° C.69/A26

binding result [4]: binds
B11: hu15C1 4-28 QC 48/A26 variant (antibody, V domains shown)
VH: B8 VH with S30T, M49I
VL: B8 VL
notes: also called 15C1 4-28° C.48/A26
